Experimental data reported in patent publication US20090099072A1 (LES LABORATOIRES SERVIER, published 2009).

Experiments:
[1] = target: T1, Bcl-2 (UniProt P10415-1 1-211, limits assumed); assay: fluorescence polarisation competition; tracer Bak BH3 carboxyfluorescein 15 nM, Bcl-2 1 µM
T1 construct: also called anti-apoptotic member of the Bcl-2 protein family
Procedure: (§1) The following reagents are mixed together in the order stated: [0089] a) competitor peptide at a final concentration of from 1 nM to 100 μM; [0090] b) fluorescent peptide ligand (Bak BH3 carboxyfluorescein) at a final concentration of 15 nM; [0091] c) anti-apoptotic member of the Bcl-2 protein family at a final concentration of 100 nM for Bcl-XL and of 1 μM for Bcl-2 and Bcl-W.
(§2) The mixture is then incubated for 30 minutes at ambient temperature and the fluorescence polarisation is determined on a Fusion apparatus (Packard) (excitation at 485 nm and reading at 530 nm). The values are given in mP (unit of fluorescence polarisation).

[2] = target: T2, Bcl-W (UniProt Q92843-1 1-172, limits assumed); assay: fluorescence polarisation competition; tracer Bak BH3 carboxyfluorescein 15 nM, Bcl-W 1 µM
T2 construct: also called anti-apoptotic member of the Bcl-2 protein family
T2 sequence (looked up): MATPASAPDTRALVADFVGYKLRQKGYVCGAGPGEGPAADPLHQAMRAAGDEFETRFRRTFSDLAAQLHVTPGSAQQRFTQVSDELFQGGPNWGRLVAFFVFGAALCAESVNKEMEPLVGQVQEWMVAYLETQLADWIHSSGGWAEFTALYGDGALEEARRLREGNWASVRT
Procedure: as §1, §2

[3] = target: T3, Bcl-XL (UniProt Q07817-1 1-209); assay: fluorescence polarisation competition; tracer Bak BH3 carboxyfluorescein 15 nM, Bcl-XL 100 nM
T3 construct: also called anti-apoptotic member of the Bcl-2 protein family
T3 sequence (Q07817 1-209): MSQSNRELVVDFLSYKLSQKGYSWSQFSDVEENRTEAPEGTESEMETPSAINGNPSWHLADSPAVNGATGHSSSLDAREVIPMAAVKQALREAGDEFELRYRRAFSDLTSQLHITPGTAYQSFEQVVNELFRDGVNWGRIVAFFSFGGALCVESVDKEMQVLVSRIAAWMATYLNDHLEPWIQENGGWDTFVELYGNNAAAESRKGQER
Procedure: as §1, §2

T1 sequence (P10415 1-211 limits assumed): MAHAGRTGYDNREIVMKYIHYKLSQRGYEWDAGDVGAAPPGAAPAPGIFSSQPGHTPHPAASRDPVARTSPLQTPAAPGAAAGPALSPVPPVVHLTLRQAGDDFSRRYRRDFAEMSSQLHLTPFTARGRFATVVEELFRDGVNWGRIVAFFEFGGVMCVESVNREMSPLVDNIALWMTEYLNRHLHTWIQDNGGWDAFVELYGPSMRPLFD

Ki [1]: 1800 nM | Ki [2]: 7400 nM | Ki [3]: 1150 nM
Binder: GTMENLSRRLKVTGDLFDIMSGQTDV [Beclin peptide, motif GTMENLSRRLKVTGDLFDIMSGQTDV of the Beclin protein]
